Measured values from patent EP4768505A1 (Shenzhen Genocury Biotech Co., Ltd, dated 2026).
Substitutions are numbered along the chain they refer to.

B1: anti-CD79B single-domain antibody JYB4 (VHH)
VHH: DVQLQESGGGLVQPGGSLRLSCAASGFAFSLYAMSWARQAPGKGLEWVSDIYGDDDSRRNYADSVKGRFTISRDNAKNTVYLQMTNLQPEDTALYYCGKGRDGTRWSAREYEYRGQGTQVTVSS
notes: Alpaca VHH from a phage library; not shown: His-tag protein at the C-terminal end
B2: anti-CD79B single-domain antibody JYB14 (VHH)
VHH: DVQLQESGGGLVQPGGSLSLTCTASISSLTIWVRAWHRQAPGKQRELVAAINSDGQTMYADSVKGRFTISRDNAKTTVSLQMDSLKPEDTAVYYCNVVTPNGQQYWGQGTQVTVSS
notes: Alpaca VHH from a phage library; ELISA detected with an anti-myc antibody; a myc tag is not described; not shown: His-tag protein at the C-terminal end
B3: anti-CD79B single-domain antibody JYB8 (VHH, not shown: small tags and cut ends)
VHH: B2 VHH with V12M, T30S, N73S, N101K
B4: anti-CD79B single-domain antibody JYB10 (VHH)
VHH: B2 VHH with T21S, T23A, L29S, T30S, S53N, D83N, N101K, Q103H
notes: as for B2

Target: T1, Mouse CD79B antigen (mouse, UniProt P15530 26-158, limits assumed)
T1 sequence (looked up): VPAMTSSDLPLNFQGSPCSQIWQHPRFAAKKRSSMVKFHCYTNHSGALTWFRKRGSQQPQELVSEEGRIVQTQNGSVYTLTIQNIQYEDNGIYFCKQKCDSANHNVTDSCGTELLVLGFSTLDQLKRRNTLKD
Assay: ELISA on coated antigen, anti-myc detection

| Binder | binding result |
| --- | --- |
| B1 | no binding (tested: 20ug) |
| B2 | no binding (tested: 20ug) |

Target: Human CD79A+CD79B antigen (human) (UniProt P11912)
Assay: ELISA on coated antigen, anti-myc detection; 2ng antibody added

| Binder | OD450 nm |
| --- | --- |
| B1 | 0.063 OD450 |
| B2 | 0.0603 OD450 |
| B3 | 0.0544 OD450 |
| B4 | 0.0596 OD450 |

Target: Human CD79B Protein, His Tag (MALS verified), Cat. No. #CDB-H52H3-1mg, ACRO (human) (UniProt P40259)
Assay: as above

| Binder | OD450 nm |
| --- | --- |
| B1 | 0.0519 OD450 |
| B2 | 0.0507 OD450 |
| B3 | 0.06 OD450 |
| B4 | 0.0517 OD450 |

Target: T2, Mouse CD79A+CD79B antigen (mouse) (UniProt P11911)
T2 sequence (looked up) 1: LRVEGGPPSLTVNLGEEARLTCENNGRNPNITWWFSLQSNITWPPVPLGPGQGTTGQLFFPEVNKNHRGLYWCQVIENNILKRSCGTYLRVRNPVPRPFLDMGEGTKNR
T2 sequence (looked up) 2: T1 sequence (looked up)
Assay: as above

| Binder | OD450 nm |
| --- | --- |
| B1 | 0.0574 OD450 |
| B2 | 0.0584 OD450 |
| B3 | 0.0543 OD450 |
| B4 | 0.0584 OD450 |

Target: T1, Mouse CD79B antigen
Assay: as above

| Binder | OD450 nm |
| --- | --- |
| B3 | 0.0512 OD450 |
| B4 | 0.0512 OD450 |

Target: Human CD79A+CD79B antigen (human) (UniProt P11912)
Assay: ELISA on coated antigen, anti-myc detection; 2ug antibody added

| Binder | OD450 nm |
| --- | --- |
| B1 | 0.585 OD450 |
| B2 | 0.634 OD450 |
| B3 | 0.802 OD450 |
| B4 | 0.554 OD450 |

Target: Human CD79B Protein, His Tag (MALS verified), Cat. No. #CDB-H52H3-1mg, ACRO (human) (UniProt P40259)
Assay: as above

| Binder | OD450 nm |
| --- | --- |
| B1 | 0.485 OD450 |
| B2 | 0.346 OD450 |
| B3 | 0.506 OD450 |
| B4 | 0.221 OD450 |

Target: T2, Mouse CD79A+CD79B antigen (mouse)
Assay: as above

| Binder | OD450 nm |
| --- | --- |
| B1 | 0.0549 OD450 |
| B2 | 0.0726 OD450 |
| B3 | 0.206 OD450 |
| B4 | 0.0788 OD450 |

Target: T1, Mouse CD79B antigen
Assay: as above

| Binder | OD450 nm |
| --- | --- |
| B3 | 0.178 OD450 |
| B4 | 0.0588 OD450 |

Target: Human CD79A+CD79B antigen (human) (UniProt P11912)
Assay: ELISA on coated antigen, anti-myc detection; 20ug antibody added

| Binder | OD450 nm |
| --- | --- |
| B1 | 0.658 OD450 |
| B2 | 0.855 OD450 |
| B3 | 0.922 OD450 |
| B4 | 0.816 OD450 |

Target: Human CD79B Protein, His Tag (MALS verified), Cat. No. #CDB-H52H3-1mg, ACRO (human) (UniProt P40259)
Assay: as above

| Binder | OD450 nm |
| --- | --- |
| B1 | 0.552 OD450 |
| B2 | 0.495 OD450 |
| B3 | 0.596 OD450 |
| B4 | 0.285 OD450 |

Target: T2, Mouse CD79A+CD79B antigen (mouse)
Assay: as above

| Binder | OD450 nm |
| --- | --- |
| B1 | 0.049 OD450 |
| B2 | 0.117 OD450 |
| B3 | 0.356 OD450 |
| B4 | 0.126 OD450 |

Target: T1, Mouse CD79B antigen
Assay: as above

| Binder | OD450 nm |
| --- | --- |
| B3 | 0.229 OD450 |
| B4 | 0.0982 OD450 |

Target: Human CD79A+CD79B antigen (human) (UniProt P11912)
Assay: ELISA on coated antigen, anti-myc detection; 20ng antibody added

| Binder | OD450 nm |
| --- | --- |
| B1 | 0.172 OD450 |
| B2 | 0.116 OD450 |
| B3 | 0.115 OD450 |
| B4 | 0.0687 OD450 |

Target: Human CD79B Protein, His Tag (MALS verified), Cat. No. #CDB-H52H3-1mg, ACRO (human) (UniProt P40259)
Assay: as above

| Binder | OD450 nm |
| --- | --- |
| B1 | 0.15 OD450 |
| B2 | 0.139 OD450 |
| B3 | 0.145 OD450 |
| B4 | 0.0739 OD450 |

Target: T2, Mouse CD79A+CD79B antigen (mouse)
Assay: as above

| Binder | OD450 nm |
| --- | --- |
| B1 | 0.0572 OD450 |
| B2 | 0.0578 OD450 |
| B3 | 0.0553 OD450 |
| B4 | 0.0609 OD450 |

Target: T1, Mouse CD79B antigen
Assay: as above

| Binder | OD450 nm |
| --- | --- |
| B3 | 0.0551 OD450 |
| B4 | 0.0517 OD450 |

Target: Human CD79A+CD79B antigen (human) (UniProt P11912)
Assay: ELISA on coated antigen, anti-myc detection; 200ng antibody added

| Binder | OD450 nm |
| --- | --- |
| B1 | 0.421 OD450 |
| B2 | 0.421 OD450 |
| B3 | 1.43 OD450 |
| B4 | 0.224 OD450 |

Target: Human CD79B Protein, His Tag (MALS verified), Cat. No. #CDB-H52H3-1mg, ACRO (human) (UniProt P40259)
Assay: as above

| Binder | OD450 nm |
| --- | --- |
| B1 | 0.375 OD450 |
| B2 | 0.321 OD450 |
| B3 | 0.308 OD450 |
| B4 | 0.144 OD450 |

Target: T2, Mouse CD79A+CD79B antigen (mouse)
Assay: as above

| Binder | OD450 nm |
| --- | --- |
| B1 | 0.0567 OD450 |
| B2 | 0.0597 OD450 |
| B3 | 0.068 OD450 |
| B4 | 0.0601 OD450 |

Target: T1, Mouse CD79B antigen
Assay: as above

| Binder | OD450 nm |
| --- | --- |
| B3 | 0.0622 OD450 |
| B4 | 0.0527 OD450 |

Target: Human CD79A+CD79B antigen (human) (UniProt P11912)
Assay: ELISA on coated antigen, anti-myc detection; 200pg antibody added

| Binder | OD450 nm |
| --- | --- |
| B1 | 0.0577 OD450 |
| B2 | 0.0561 OD450 |
| B3 | 0.0521 OD450 |
| B4 | 0.0573 OD450 |

Target: Human CD79B Protein, His Tag (MALS verified), Cat. No. #CDB-H52H3-1mg, ACRO (human) (UniProt P40259)
Assay: as above

| Binder | OD450 nm |
| --- | --- |
| B1 | 0.0521 OD450 |
| B2 | 0.0501 OD450 |
| B3 | 0.0418 OD450 |
| B4 | 0.0496 OD450 |

Target: T2, Mouse CD79A+CD79B antigen (mouse)
Assay: as above

| Binder | OD450 nm |
| --- | --- |
| B1 | 0.0601 OD450 |
| B2 | 0.0609 OD450 |
| B3 | 0.0619 OD450 |
| B4 | 0.0584 OD450 |

Target: T1, Mouse CD79B antigen
Assay: as above

| Binder | OD450 nm |
| --- | --- |
| B3 | 0.0485 OD450 |
| B4 | 0.0517 OD450 |

Target: BSA (UniProt P02769)
Assay: ELISA on coated BSA control, anti-myc detection; 2ug antibody added

BSA, sequence (P02769 25-607 limits assumed): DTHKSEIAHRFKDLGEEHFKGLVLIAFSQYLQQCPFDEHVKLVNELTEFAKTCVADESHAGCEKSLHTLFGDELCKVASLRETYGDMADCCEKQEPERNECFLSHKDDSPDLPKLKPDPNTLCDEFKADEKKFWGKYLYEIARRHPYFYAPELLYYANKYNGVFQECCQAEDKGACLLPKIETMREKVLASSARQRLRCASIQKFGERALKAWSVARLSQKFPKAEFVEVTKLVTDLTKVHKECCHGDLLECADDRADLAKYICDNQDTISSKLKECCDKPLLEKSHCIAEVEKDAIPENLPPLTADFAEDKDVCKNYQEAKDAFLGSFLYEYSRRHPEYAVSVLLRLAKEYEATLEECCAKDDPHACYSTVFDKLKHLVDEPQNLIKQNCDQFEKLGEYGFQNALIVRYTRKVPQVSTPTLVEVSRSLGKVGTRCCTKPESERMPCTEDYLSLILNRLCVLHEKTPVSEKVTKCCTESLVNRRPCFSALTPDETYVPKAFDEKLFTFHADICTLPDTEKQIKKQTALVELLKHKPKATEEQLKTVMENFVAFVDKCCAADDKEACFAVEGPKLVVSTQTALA

| Binder | OD450 nm |
| --- | --- |
| B1 | 0.0479 OD450 |
| B2 | 0.0506 OD450 |
| B3 | 0.0582 OD450 |
| B4 | 0.0482 OD450 |

Target: BSA (UniProt P02769)
Assay: ELISA on coated BSA control, anti-myc detection; 2ng antibody added

| Binder | OD450 nm |
| --- | --- |
| B1 | 0.0479 OD450 |
| B2 | 0.0474 OD450 |
| B3 | 0.0474 OD450 |
| B4 | 0.0486 OD450 |

Target: BSA (UniProt P02769)
Assay: ELISA on coated BSA control, anti-myc detection; 20ng antibody added

| Binder | OD450 nm |
| --- | --- |
| B1 | 0.0499 OD450 |
| B2 | 0.0476 OD450 |
| B3 | 0.0554 OD450 |
| B4 | 0.0474 OD450 |

Target: BSA (UniProt P02769)
Assay: ELISA on coated BSA control, anti-myc detection; 20ug antibody added

| Binder | OD450 nm |
| --- | --- |
| B1 | 0.0488 OD450 |
| B2 | 0.0489 OD450 |
| B3 | 0.0537 OD450 |
| B4 | 0.0493 OD450 |

Target: BSA (UniProt P02769)
Assay: ELISA on coated BSA control, anti-myc detection; 200ng antibody added

| Binder | OD450 nm |
| --- | --- |
| B1 | 0.049 OD450 |
| B2 | 0.0493 OD450 |
| B3 | 0.052 OD450 |
| B4 | 0.0473 OD450 |

Target: BSA (UniProt P02769)
Assay: ELISA on coated BSA control, anti-myc detection; 200pg antibody added

| Binder | OD450 nm |
| --- | --- |
| B1 | 0.0476 OD450 |
| B2 | 0.0489 OD450 |
| B3 | 0.0534 OD450 |
| B4 | 0.0488 OD450 |

Target: T3, human CD79B antigen (a full-length protein containing signal peptide, UniProt ID: P40259) on cells (human, UniProt P40259 29-229)
T3 construct: whole, on cells; Used for the flow cytometry on transfected HEK-293T cells; F2A residues left at the C-terminus after cleavage are not described; also called CD79B-GFP molecule; HEK-293T cells overexpressing the CD79B-GFP molecule
T3 sequence (looked up): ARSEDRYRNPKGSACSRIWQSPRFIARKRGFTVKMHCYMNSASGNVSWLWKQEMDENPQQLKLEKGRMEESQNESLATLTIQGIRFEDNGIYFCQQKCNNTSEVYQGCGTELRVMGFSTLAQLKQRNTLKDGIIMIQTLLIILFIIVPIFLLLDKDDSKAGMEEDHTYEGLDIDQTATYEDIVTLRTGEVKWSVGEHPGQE
Assay: flow cytometry on HEK-293T cells overexpressing CD79B-GFP, 0.1 mg/mL, APC-His tag antibody

| Binder | binding result |
| --- | --- |
| B1 | binds |
| B2 | binds |
| B4 | binds |
